The values below come from article PMC7522779.

The target in this assay is Pex14p-S266D, Gal4p fusion protein for yeast two-hybrid (S. cerevisiae) (UniProt P53112). Description: two-hybrid; liquid ß-galactosidase assay with 2-nitrophenyl β-D-galactopyranoside; GAL4 BD and AD fusions in strain PCY2 pex14Δ; triplicate measurements of three independent transformants.
Chain of UniProt P53112 (P53112 whole entry S266D, the tested form may be a part): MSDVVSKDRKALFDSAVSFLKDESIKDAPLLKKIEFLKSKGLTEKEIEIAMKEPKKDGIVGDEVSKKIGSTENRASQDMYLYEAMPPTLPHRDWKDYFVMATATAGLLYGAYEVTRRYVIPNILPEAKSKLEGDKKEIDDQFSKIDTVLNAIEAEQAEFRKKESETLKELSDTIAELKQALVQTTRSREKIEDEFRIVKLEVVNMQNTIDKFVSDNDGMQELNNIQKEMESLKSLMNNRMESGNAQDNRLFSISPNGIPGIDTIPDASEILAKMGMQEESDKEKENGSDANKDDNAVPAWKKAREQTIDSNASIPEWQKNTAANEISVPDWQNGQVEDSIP

“Pex13p, Gal4p fusion protein for yeast two-hybrid (from UniProt P80667 1-386) (natural protein)” came in with a binding as percent of wild-type level (ß-galactosidase activity) (% of wild-type levels) of less than 50.
